Laboratory results as given in the supplement of paper PMC11908140.

B1: library; numbered along this chain (parent)
chain: MRKPRAAVGSGHRKQAASQEGRQKHAKNNSQAKPSACDGLARQPEEVVLQASVSSYHLFRDVAEVTAFRGSLLSWYDQEKRDLPWRRRAEDEMDLDRRAYAVWVSEVMLQQTQVATVINYYTGWMQKWPTLQDLASASLEEVNQLWAGLGYYSRGRRLQEGARKVVEELGGHMPRTAETLQQLLPGVGRYTAGAIASIAFGQATGVVDGNVARVLCRVRAIGADPSSTLVSQQLWGLAQQLVDPARPGDFNQAAMELGATVCTPQRPLCSQCPVESLCRARQRVEQEQLLASGSLSGSPDVEECAPNTGQCHLCLPPSEPWDQTLGVVNFPRKASRKPPREESSATCVLEQPGALGAQILLVQRPNSGLLAGLWEFPSVTWEPSEQLQRKALLQELQRWAGPLPATHLRHLGEVVHTFSHIKLTYQVYGLALEGQTPVTTVPPGARWLTQEEFHTAAVSTAMKKVFRVYQGQQPGTCMGSKRSQVSSPCSRKKPRMGQQVLDNFFRSHISTDAHSLNSAAQ

Variants of: B1
Test: 8OG:A repair function score (normalized; synonymous = 0, nonsense = -1) (normalized log-likelihood score); higher = more repair activity (WT-like)
Details: with 8OG:A DNA repair reporter (GFP) in HEK-293 MUTYH KO cells
Outline: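 After 72 h, viable mCherry+ cells were split into GFP+ (repair) and GFP− bins in three replicates per tile. These cells were MUTYH knockout HEK-293 cells holding lentiviral MUTYH cDNA NNN codon-scan libraries, kept in 10 pg/ml doxycycline and co-transfected with mCherry plus an 8OG:A GFP repair reporter. Sequencing of tile amplicons gave per-tile Rosace fitness scores, normalized into a repair function score anchored on synonymous and nonsense distributions. Synonymous medians were fixed at 0, nonsense at -1, and variants under 300 counts per million at the start were removed.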
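Note: cells sorted at 72 h after reporter transfection.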

8OG:A repair function score of substitutions, site by site:
L234: Q -0.724; A -0.833; C -0.521; G -0.994; Y -0.976; I -0.183; H -0.751; D -1.03; N -0.855; T -0.464; K -0.869; E -0.954; V -0.29; W -0.79; P -1.02; R -1.01; S -0.827
T228: Q -0.217; V 0.153; N -0.0359; F -0.051; E 0.0521; A 0.0743; Y -0.0271; I -0.152; K 0.0779; M 0.0193; P 0.212; H 0.457; L 0.00837; D -0.245; S 0.124; C -0.0551; R 0.329; G 0.0678; W -0.106
S227: W -0.244; A -0.0215; I -0.232; C -0.0498; N 0.126; D 0.49; K 0.0372; G -0.0911; Y -0.307; R -0.103; L -0.119; F -0.188; Q -0.0353; P -0.658; V -0.241; E -0.452; H -0.197; T 0.0756
S226: V -0.247; H 0.0371; Q 0.176; W -0.231; Y -0.198; M -0.173; L -0.314; G -0.00798; R 0.00193; T -0.0677; K 0.026; D -0.146; I -0.309; F -0.371; P -0.642; C -0.132; E 0.00732; A 0.0017; N 0.261
G222: H -0.56; T -0.547; W -0.349; V -0.622; L -0.623; S -0.439; Y -0.461; F -0.564; Q -0.443; D -0.733; C -0.509; A -0.213; I -0.608; E -0.565; R -0.436; N -0.593; K -0.495; M -0.381; P -0.731
V218: Y -0.62; S -0.374; W -0.74; T -0.283
Q233: A -0.259; N -0.032; T 0.244; C -0.188; W -0.0138; L 0.227; R -0.19; D -0.318; V 0.335; H 0.461; Y 0.0243; E -0.306; F 0.305; I 0.198; K -0.089; G -0.0523; S 0.0726; P -0.428; M 0.177
A220: V -0.57; C -0.411; W -0.836; N -0.671; H -0.555; M -0.551; L -0.81; F -0.676; E -0.465; P -0.978; R -0.747; S -0.411; D -0.821; T -0.62; Y -0.75; Q -0.691; G -0.13; I -0.848; K -0.891
V230: M -0.387; C -0.229; R -0.524; H -0.63; I -0.264; F -0.517; E -0.881; Y -0.311; K -0.826; N -0.687; G -0.152; T -0.281; Q -0.787; A -0.0122; W -0.571; P -0.409; S -0.422; L -0.499; D -0.915
D224: C -0.955; K -0.928; H -0.924; P -0.861; R -0.978; W -0.942; A -0.954; Q -0.87; L -0.947; V -0.988; S -0.964; I -0.934; E -0.936; T -0.955; Y -0.939; N -0.918; G -0.936; F -0.955; M -0.995
P225: A -0.238; C -0.182; F -0.222; R -0.147; I 0.0375; V -0.0099; W -0.322; N -0.234; T -0.0501; S -0.0602; K -0.284; H -0.374; D -0.53; Q -0.132; E -0.604; L 0.119; G -0.342; Y 0.0138; M -0.186
G236: I 0.00703; E 0.29; D 0.156; A 0.149; N 0.18; L -0.0738; K 0.114; F 0.0301; H -0.00754; C 0.116
A223: R 0.032; Q -0.0573; I -0.454; Y -0.608; N -0.465; M -0.321; E -0.219; V -0.38; W -0.73; L -0.498; S -0.27; C -0.145; H -0.196; K -0.118; D -0.631; P -0.418; T -0.118; F -0.516; G -0.111
L229: T -0.124; W -0.0377; A 0.087; S 0.0557; Y 0.0445; N -0.25; I -0.0293; V 0.0526; Q -0.161; C -0.201; R 0.134; P -0.112; K 0.076; E -0.064; G -0.0206; M -0.0886; F -0.0261; H 0.287; D -0.158
Q232: G 0.139; T -0.105; W -0.433; P -0.285; S -0.0424; M -0.355; R 0.171; K -0.0471; I -0.459; L -0.326; V -0.243; A -0.179; E 0.105; D -0.0919; Y -0.106; F -0.308; N -0.0697; C -0.188; H -0.21
R219: E -0.837; N -0.877; H -0.593; F -0.485; P -1.02; S -0.772; I -0.887; V -0.809; T -0.638; C -0.563; M -0.571; D -0.946; L -0.542; K -0.381; A -0.563; G -0.758; W -0.783; Q -0.682; Y -0.556
W235: L -0.406; C -0.509; M -0.389; Y -0.177; I -0.342; P -1; A -0.284; H -0.343; S -0.516; D -0.452; R -0.496; V -0.467; T -0.416; Q -0.314; F -0.292; K -0.51; N -0.368; G -0.61; E -0.204
I221: Q -1.03; C -0.728; R -0.972; W -0.622; A -0.993; F -0.597; H -0.866; T -0.889; L -0.449; V -0.347; Y -0.63; G -0.993; K -0.986; M -0.523; E -0.989; N -0.933; P -1.01; D -1.02; S -0.991
S231: E 0.0501; W 0.173; L -0.0707; D -0.132; T 0.0918; V -0.0155; P -0.683; M 0.155; N 0.155; K 0.154; G -0.125; C -0.12; F -0.24; I -0.0202; R 0.201; A -0.0555; Y -0.226; H -0.0123; Q -0.132
